From article PMC2805716, “Critical Structural and Functional Roles for the N-Terminal Insertion Sequence in Surfactant Protein B Analogs” (PLoS ONE, 2010)

What was measured:
[1] = lipid monolayers containing palmitic acid; ref [31], [32]; cited from earlier work
Source text: (§1) Previous structural and functional studies with synthetic peptides representing the N- and C-terminal regions of SP-B further support the hypothesis that these charged amphipathic helices participate in surfactant activities. […] The cationic N-terminus of SP-B may here interact with anionic lipids to remove the driving force for lipid squeeze-out from the surface film, [32]. In additional studies, SP-B(1–25 ...

[2] = tested on: surfactant-deficient animal models; conditions: ref [34]–[37]; cited from earlier work
Source text: as §1

[3] = ESR, ref [30], cited from earlier work
Source text: Although the “10 nsec” MD simulation of dimer S-MB provides a reasonable framework to account for our SDS-PAGE and SPR results (Figs. 8 and 10), it is worthwhile to consider other structural models by which the N-terminal insertion sequence may promote the self-association of S-MB. One possible alternative is that oligomeric S-MB may be due to the N-terminal sequence (residues 1-7) forming β-sheet. The N-terminal SP-B(1–9) (Fig. 2) was earlier proposed to act as a ‘biochemical Velcro®,’ facilitating in vivo either the aggregation of SP-B or the interactions of SP-B with SP-C [50]. In support ...

[4] = tested on: ventilated rats with ARDS induced by in vivo lavage; assay: Ventilated lung-lavaged rat model of ARDS; design: species or system Sprague-Dawley rats; conditions: n = 8–10; for relative order of pulmonary activity (oxygenation and compliance): 90 min after intratracheal 100 mg/kg surfactant; for arterial oxygenation (PaO2) / dynamic lung compliance: synthetic lipids +1.5 mol% peptide, 90 min; for arterial oxygenation (PaO2): 100% oxygen
Description: Animal experiments were performed under established protocols approved by the Animal Care and Use Committee at the Los Angeles Biomedical Research Institute at Harbor-UCLA Medical Center. Anesthesia, surgery, lavage, ventilation, and monitoring methods used have been detailed previously [35]–[37]. Briefly, adult male Sprague-Dawley rats weighing 200–225 g were anesthetized with 35 mg/kg pentobarbital sodium and 80 mg/kg ketamine by intraperitoneal injection, intubated, and ventilated with a rodent ventilator (Harvard Apparatus, South Natick, MA) with 100% oxygen, a tidal volume of 7.5 ml/kg and a rate of 60/min. An arterial line was placed in the abdominal aorta for measurements of arterial blood pressure and blood gases. Rats were paralyzed with 1 mg/kg pancuronium bromide intravenously. Only animals with PaO2 values >400 torr while ventilated with 100% oxygen and with normal blood pressure values were included in the experiments. Airway pressures were measured with a pressure transducer (Gould Inc., Cleveland, OH) and tidal volume with a pneumotachometer (Validyne, Northridge, CA) connected to a multi-channel recorder (Gould Inc., Cleveland, OH). The lungs were lavaged 8–12 times with 8 ml of pre-warmed 0.9% NaCl. After the PaO2 in 100% oxygen had reached stable values of <100 torr, the rats were treated with 100 mg/kg of experimental surfactant by intratracheal instillation. Arterial blood gases, tidal volume and airway pressures were determined at 15 min intervals throughout each experiment. Dynamic lung compliance was calculated by dividing tidal volume/kg body weight by changes in airway pressure (peak inspiratory pressure minus positive end-expiratory pressure) (mL/kg/cmH2O). Ninety minutes after surfactant instillation, rats were killed with 200 mg/kg pentobarbital sodium intravenously. Each treatment group consisted of 8–10 animals.

[5] = Captive bubble surfactometry, dynamic surface activity; type: physicochemical; conditions: for minimum surface tension: 1.5 mol% in synthetic lipids 16:10:6:1:2 (weight) DPPC:POPC:POPG:POPE:cholesterol, 20 cycles/min, ten cycles, 37°C, n = 4
Description: The captive bubble surfactometer used here was a fully-computerized version of that described by Schurch and co-workers [79]–[81]. In brief, the sample chamber of the apparatus was cut from high-quality cylindrical glass tubing (10 mm inner diameter). A Teflon® piston with a tight O-ring seal was fitted into the glass tubing from the top end, with a plug of buffered 1% agarose gel inserted between the piston and the surfactant solution that was added through a stainless steel port from the other end of the sample chamber. The chamber and piston were vertically mounted in a steel rack, the height of which was regulated by a precision micrometer gear. In a typical experiment, the chamber was filled with a buffered salt solution (140 mM NaCl, 10 mM HEPES, 2.5 mM CaCl2, pH 6.9) containing 10% sucrose. One µl of surfactant solution containing 35 µg of lipid was added to this subphase, which was stirred by a small magnetic bar at 37°C. The subphase volume in the sample chamber averaged 0.7 ml (0.5–1 ml), resulting in a final average surfactant lipid concentration of 50 µg/ml (35–75 µg/ml). An air bubble approximately 7 mm in diameter (∼200 µl in volume) was then introduced within the sample chamber and subjected to cyclic volume (surface area) changes by systematically varying the height of the steel rack following a 5 min pause to allow adsorption to the air-water interface. The ionic composition of the buffered agarose plug minimized bubble adhesion to the plug during cycling, so that an uninterrupted bubble interface was maintained. […] Bubble images were continuously monitored during compression-decompression using a digital video camera (PULNIX Model TM-200, Pulmix America Inc, Sunnyvale, CA) and a professional video recorder (Panasonic AG-1980P, Secaucus, NJ) coupled to a computer with an Intel Pentium 4 processor. […] Bubble areas and volumes were calculated by an original algorithm relating bubble height and diameter to areas of revolution, and bubble surface tension was determined by the method of Malcolm and Elliot. […]

[6] = target: the molecule itself; assay: SDS-PAGE; 4 µg peptide in 8 µl buffer (50 mM MOPS, 50 mM Tris, pH 7.7, 0.1% SDS, 1 mM EDTA), neither heated nor reduced; 16% acrylamide gel; Coomassie blue and silver staining; molecular weight markers 2.5-16.9 kDa
[7] = target: T1, Cys-MB (Mini-B with a cysteine added to its N-terminus, chip-linked) (human); assay: SPR; Biacore 3000; Cys-MB or Cys-S-MB linked to a thiol chip; MB or S-MB at 1 µg peptide/ml in HBS-EP (10 mM Hepes, pH 7.4, 150 mM NaCl, 3 mM EDTA, 0.005% surfactant P20) flowed over at 50 µl/min, 37°C; constants from curve fitting at the one concentration; conditions: both partners purified
T1 construct: cysteine added to the N-terminus to link the peptide to the thiol Biacore chip; surfactant protein B (SP-B), human, residues 8-25; numbers count on: the mature protein (79 residues); surfactant protein B (SP-B), human, residues 63-78; Immobilised on the SPR chip; also called chipped MB; N-terminal Cys-MB
T1 chain: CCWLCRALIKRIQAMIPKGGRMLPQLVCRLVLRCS

[8] = target: T2, Cys-S-MB (Super Mini-B with a cysteine added to its N-terminus, chip-linked) (human); assay: as above; conditions: both partners purified
T2 construct: cysteine added to the N-terminus to link the peptide to the thiol Biacore chip; surfactant protein B (SP-B), human, residues 1-25; numbers count on: the mature protein (79 residues); surfactant protein B (SP-B), human, residues 63-78; Immobilised on the SPR chip; also called chipped S-MB; N-terminal Cys-S-MB
T2 chain: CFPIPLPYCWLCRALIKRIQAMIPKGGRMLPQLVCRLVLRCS

[9] = intratracheal 100 mg/kg surfactant

Molecule: SP-B(1–25): synthetic peptide based on the N-terminal domain of SP-B, residues 1–25 (FPIPLPYCWLCRALIKRIQAMIPKG; Pulmonary surfactant-associated protein B; UniProt P07988 201-225, looked up, fragment)
- collapse pressure of lipid monolayers [1]: increase the collapse pressure
- oxygenation and lung compliance [2]: improved oxygenation and lung compliance
- aggregation ([3]; PBS, spin-labeled at Phe-1): primarily aggregated in PBS
- aggregation upon addition of SDS micelles ([3]; SDS micelles added): addition of SDS micelles rapidly dissociated these SP-B(1–25) aggregates

Molecule: H-FPIPLPYC-NH2 [SP-B(1–8)]
- relative order of pulmonary activity (oxygenation and compliance) [4]: S-MB > MB > pig SP-B > SP-B(1–8)> lipids alone
- arterial oxygenation (PaO2) [4, 9]: minimal effects
- dynamic lung compliance [4, 9]: minimal effects
- minimum surface tension [5]: 20 mN/m
- statistical comparison of minimum surface tension ([5]; after ten cycles, versus S-MB, MB and pig SP-B surfactants): significantly higher

B1: SP-B: 79 amino acids, lipid-associating lung protein, covalently linked homodimer (protein, UniProt P07988 201-279, looked up)
Pulmonary …: FPIPLPYCWLCRALIKRIQAMIPKGALAVAVAQVCRVVPLVAGGICQCLAERYSVILLDTLLGRMLPQLVCRLVLRCSM
modifications: Pulmonary surfactant-associated protein B
notes: 79 amino acids, lipid-associating lung protein, covalently linked homodimer
- collapse pressure of lipid monolayers [1]: increase the collapse pressure

B2: pig SP-B: native pig SP-B, positive control (protein, UniProt P15782 1-79, looked up)
Pulmonary …: FPIPLPFCWLCRTLIKRIQAVVPKGVLLKAVAQVCHVVPLPVGGICQCLAERYIVICLNMLLDRTLPQLVCGLVLRCSS
modifications: Pulmonary surfactant-associated protein B
notes: native pig SP-B, positive control
- relative order of pulmonary activity (oxygenation and compliance) [4]: S-MB > MB > pig SP-B > SP-B(1–8)> lipids alone
- arterial oxygenation (PaO2) [4, 9]: increased quickly
- dynamic lung compliance [4, 9]: increased quickly
- oxygenation and compliance versus SP-B1-8 and lipids only surfactants [4, 9]: consistently surpassed the performance of SP-B1-8 and lipids only surfactants (p<0.001)
- significance of differences in oxygenation and compliance between S-MB, MB and pig SP-B [4, 9]: statistically significant (p<0.05) starting at 30 min after surfactant instillation
- minimum surface tension [5]: < 3 mN/m

B3: Super Mini-B (peptide)
chain: FPIPLPYCWLCRALIKRIQAMIPKGGRMLPQLVCRLVLRCS
notes: numbers count on: the mature protein (79 residues); surfactant protein B (SP-B), human, residues 63-78 (C-terminal helix region); the split into the two SP-B stretches follows the stated ranges (1-7 plus 8-25, and 63-78); Oxidised form with intramolecular disulfides Cys-8 to Cys-40 and Cys-11 to Cys-34; also called S-MB; SMB; source: synthetic peptide (Fmoc solid phase, HPLC-purified, …)
- stoichiometry N [6]: 2
- Kd [7]: 52.1 nM
- koff [7]: 0.00736 s⁻¹
- kon [7]: 141000 M⁻¹ s⁻¹
- Kd [8]: 20.1 nM
- koff [8]: 0.000901 s⁻¹
- kon [8]: 44700 M⁻¹ s⁻¹
